B1: CCM2 LD–like motif peptide (224–239) (peptide)
peptide: Ac-STIDFLDRAIFDGAST-NH2
B2: CCM3 (purified, polyhistidine tag removed by TEV protease) (natural protein)
chain: not shown
B3: N-terminally 6×His-tagged full-length CCM3 (natural protein)
chain: not shown
B4: GST-CCM2-LD–like motif (residues 224–239) (peptide)
chain: STIDFLDRAIFDGAST
B5: GST-CCM2^PTB-LongLinker (residues 51–251) (domain or fragment, human, UniProt Q9BSQ5 51-251, looked up)
chain: ERVEPDRLLSDYIEKEVKYLGQLTSIPGYLNPSSRTEILHFIDNAKRAHQLPGHLTQEHDAVLSLSAYNVKLAWRDGEDIILRVPIHDIAAVSYVRDDAAHLVVLKTAQDPGISPSQSLCAESSRGLSAGSLSESAVGPVEACCLVILAAESKVAAEELCCLLGQVFQVVYTESTIDFLDRAIFDGASTPTHHLSLHSDDS
B6: GST-CCM2^PTB-ShortLinker (residues 51–238) (domain or fragment, human, UniProt Q9BSQ5 51-238, looked up)
chain: ERVEPDRLLSDYIEKEVKYLGQLTSIPGYLNPSSRTEILHFIDNAKRAHQLPGHLTQEHDAVLSLSAYNVKLAWRDGEDIILRVPIHDIAAVSYVRDDAAHLVVLKTAQDPGISPSQSLCAESSRGLSAGSLSESAVGPVEACCLVILAAESKVAAEELCCLLGQVFQVVYTESTIDFLDRAIFDGAS

How the values were obtained:
[1] = biological target: B2; experiment: crystal structure
[2] = biological target: the molecule itself; experiment: crystal structure
[3] = biological target: GST-CCM2^FL (residues 1–438) (human, UniProt Q9BSQ5 1-438); experiment: pull-down
[4] = biological target: B3; experiment: pull-down
[5] = biological target: B2; experiment: BLI
[6] = biological target: B3; experiment: pull-down; remark: listed apart in the source

Sequence of GST-CCM2^FL (residues 1–438) (Q9BSQ5 1-438): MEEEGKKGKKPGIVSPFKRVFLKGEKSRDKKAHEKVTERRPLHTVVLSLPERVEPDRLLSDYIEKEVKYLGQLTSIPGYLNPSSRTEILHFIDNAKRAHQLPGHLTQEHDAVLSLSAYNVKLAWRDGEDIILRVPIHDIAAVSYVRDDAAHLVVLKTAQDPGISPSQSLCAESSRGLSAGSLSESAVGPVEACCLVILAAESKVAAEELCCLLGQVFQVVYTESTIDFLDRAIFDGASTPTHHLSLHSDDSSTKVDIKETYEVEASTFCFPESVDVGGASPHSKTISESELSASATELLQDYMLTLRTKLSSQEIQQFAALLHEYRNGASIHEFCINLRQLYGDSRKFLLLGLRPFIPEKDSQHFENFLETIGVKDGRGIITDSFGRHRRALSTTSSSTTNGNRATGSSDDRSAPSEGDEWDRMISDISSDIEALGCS

Binder: B1
binding result [1]: binds

Binder: B2
binding result [2]: binds

Binder: B3
Kd [3]: 8.8 ± 1.6 µM

Binder: B4
Kd [4]: 8.6 ± 2.2 µM
Kd [5]: 9.5 ± 2.5 µM

Binder: B5
binding result [6]: binds

Binder: B6
binding result [6]: binds

Reference: paper PMC4384732 (The Journal of Cell Biology, 2015)
